One assay has as its target T1, P9mSN.
T1 chain: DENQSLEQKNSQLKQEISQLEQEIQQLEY
The assay can be described thus: two-hybrid library CCNG1.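 Further: natural log of median RNA to DNA barcode read ratio; higher means stronger binding.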

Another assay deals with T2, P6mSN.
T2 chain: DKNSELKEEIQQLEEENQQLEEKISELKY
The assay can be described thus: two-hybrid library CCNG1.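 Further: natural log of median RNA to DNA barcode read ratio; higher means stronger binding.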

The next assay concerns the target T3, P7mSN.
T3 chain: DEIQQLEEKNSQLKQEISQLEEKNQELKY
As to the kind of experiment: two-hybrid library CCNG1.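 Further: natural log of median RNA to DNA barcode read ratio; higher means stronger binding.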

Another assay has as its target T4, P8mSN.
T4 chain: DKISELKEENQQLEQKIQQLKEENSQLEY
As to the kind of experiment: two-hybrid library CCNG1.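 Further: natural log of median RNA to DNA barcode read ratio; higher means stronger binding.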

For the next assay, the target named is T5, 4H3057-bH.
T5 chain: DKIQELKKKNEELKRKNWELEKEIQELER
As to the kind of experiment: two-hybrid library CCNG1.

Another assay addresses T6, 4H3277-bH.
T6 chain: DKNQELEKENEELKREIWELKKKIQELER
As to the kind of experiment: two-hybrid library CCNG1.

In the next assay the target is T7, 4H492-bH.
T7 chain: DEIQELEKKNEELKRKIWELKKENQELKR
As to the kind of experiment: two-hybrid library CCNG1.

For another assay, the target named is T8, 4H2585-bH.
T8 chain: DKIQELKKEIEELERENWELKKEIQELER
The assay can be described thus: two-hybrid library CCNG1.

The next assay has as its target T9, 4H40-bH.
T9 chain: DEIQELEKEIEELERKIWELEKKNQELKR
As to the kind of experiment: two-hybrid library CCNG1.

The target of another assay is T10, 4H348-bH.
T10 chain: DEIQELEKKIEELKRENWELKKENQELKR
As to the kind of experiment: two-hybrid library CCNG1.

For the next assay, the target named is T11, 4H477-bH.
T11 chain: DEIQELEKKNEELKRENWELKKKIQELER
The assay can be described thus: two-hybrid library CCNG1.

For the next assay, the target named is T12, 4H2717-bH.
T12 chain: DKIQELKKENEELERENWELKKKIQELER
The assay can be described thus: two-hybrid library CCNG1.

The target of the next assay is T13, 4H2915-bH.
T13 chain: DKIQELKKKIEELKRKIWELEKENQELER
The assay can be described thus: two-hybrid library CCNG1.

For the next assay, the target named is T14, 4H319-bH.
T14 chain: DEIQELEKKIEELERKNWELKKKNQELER
As to the kind of experiment: two-hybrid library CCNG1.

The next assay has as its target T15, 4H741-bH.
T15 chain: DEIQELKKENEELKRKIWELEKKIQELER
As to the kind of experiment: two-hybrid library CCNG1.

The target of another assay is T16, 4H2839-bH.
T16 chain: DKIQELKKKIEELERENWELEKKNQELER
The assay can be described thus: two-hybrid library CCNG1.

Another assay addresses T17, 4H2692-bH.
T17 chain: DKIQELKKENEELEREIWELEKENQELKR
As to the kind of experiment: two-hybrid library CCNG1.

The target of a further assay is T18, 4H2588-bH.
T18 chain: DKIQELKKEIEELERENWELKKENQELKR
The assay can be described thus: two-hybrid library CCNG1.

In a further assay the target is T19, 4H2248-AA.
T19 chain: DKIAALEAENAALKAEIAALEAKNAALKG
As to the kind of experiment: two-hybrid library CCmax. The conditions noted are these: mean of both orientations.

A further assay addresses T20, 4H2742-AA.
T20 chain: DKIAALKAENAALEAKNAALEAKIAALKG
As to the kind of experiment: two-hybrid library CCmax. The conditions noted are these: mean of both orientations.

In another assay the target is T21, 4H391-AA.
T21 chain: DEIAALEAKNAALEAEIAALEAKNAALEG
The assay can be described thus: two-hybrid library CCmax. The conditions noted are these: mean of both orientations.

For a further assay, the target named is T22, 4H497-AA.
T22 chain: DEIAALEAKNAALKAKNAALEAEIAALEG
The assay can be described thus: two-hybrid library CCmax. The conditions noted are these: mean of both orientations.

The next assay has as its target T23, 4H2283-AA.
T23 chain: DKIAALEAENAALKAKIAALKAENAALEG
As to the kind of experiment: two-hybrid library CCmax. The note with it: mean of both orientations.

A further assay addresses T24, 4H3666-AA.
T24 chain: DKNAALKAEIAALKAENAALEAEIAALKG
As to the kind of experiment: two-hybrid library CCmax. The note with it: mean of both orientations.

The target of a further assay is T25, 4H3591-AA.
T25 chain: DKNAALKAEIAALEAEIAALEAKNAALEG
As to the kind of experiment: two-hybrid library CCmax. The conditions noted are these: mean of both orientations.

The next assay addresses T26, 4H3417-AA.
T26 chain: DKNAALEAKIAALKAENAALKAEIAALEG
As to the kind of experiment: two-hybrid library CCmax. The note with it: mean of both orientations.

A further assay deals with T27, 4H3066-AA.
T27 chain: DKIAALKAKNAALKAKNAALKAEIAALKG
The assay can be described thus: two-hybrid library CCmax. The note with it: mean of both orientations.

For a further assay, the target named is T28, 4H3628-AA.
T28 chain: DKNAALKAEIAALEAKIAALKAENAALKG
The assay can be described thus: two-hybrid library CCmax. The conditions noted are these: mean of both orientations.

The target of the next assay is T29, 4H656-AA.
T29 chain: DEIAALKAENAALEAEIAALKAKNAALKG
As to the kind of experiment: two-hybrid library CCmax. The note with it: mean of both orientations.

The next assay concerns the target T30, 4H2713-AA.
T30 chain: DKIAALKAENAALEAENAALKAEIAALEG
As to the kind of experiment: two-hybrid library CCmax. The note with it: mean of both orientations.

The next assay deals with T31, 4H428-AA.
T31 chain: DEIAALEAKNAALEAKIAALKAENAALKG
The assay can be described thus: two-hybrid library CCmax. The conditions noted are these: mean of both orientations.

In a further assay the target is T32, 4H1809-AA.
T32 chain: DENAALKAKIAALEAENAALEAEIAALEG
The assay can be described thus: two-hybrid library CCmax.

Another assay deals with T33, 4H3920-AA.
T33 chain: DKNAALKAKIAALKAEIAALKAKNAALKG
The assay can be described thus: two-hybrid library CCmax. The conditions noted are these: mean of both orientations.

Another assay deals with T34, 4H189-AA.
T34 chain: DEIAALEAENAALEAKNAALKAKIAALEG
The assay can be described thus: two-hybrid library CCmax. The conditions noted are these: mean of both orientations.

For the next assay, the target named is T35, 4H478-AA.
T35 chain: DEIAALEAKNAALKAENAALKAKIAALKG
As to the kind of experiment: two-hybrid library CCmax. The note with it: mean of both orientations.

For the next assay, the target named is T36, 4H2991-AA.
T36 chain: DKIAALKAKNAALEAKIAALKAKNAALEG
As to the kind of experiment: two-hybrid library CCmax. The note with it: mean of both orientations.

For another assay, the target named is T37, 4H3102-AA.
T37 chain: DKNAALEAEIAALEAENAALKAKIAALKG
As to the kind of experiment: two-hybrid library CCmax. The conditions noted are these: mean of both orientations.

In another assay the target is T38, 4H971-AA.
T38 chain: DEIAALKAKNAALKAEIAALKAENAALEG
The assay can be described thus: two-hybrid library CCmax. The conditions noted are these: mean of both orientations.

The target of the next assay is T39, 4H3939-AA.
T39 chain: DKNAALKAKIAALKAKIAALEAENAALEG
As to the kind of experiment: two-hybrid library CCmax. The conditions noted are these: mean of both orientations.

A further assay has as its target T40, 4H1854-AA.
T40 chain: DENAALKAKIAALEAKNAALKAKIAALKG
As to the kind of experiment: two-hybrid library CCmax. The note with it: mean of both orientations.

The target of a further assay is T41, 4H3029-AA.
T41 chain: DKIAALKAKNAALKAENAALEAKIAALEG
The assay can be described thus: two-hybrid library CCmax. The note with it: mean of both orientations.

The target of another assay is T42, 4H3709-AA.
T42 chain: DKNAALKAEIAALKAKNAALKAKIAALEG
As to the kind of experiment: two-hybrid library CCmax. The note with it: mean of both orientations.

Another assay has as its target T43, 4H3446-AA.
T43 chain: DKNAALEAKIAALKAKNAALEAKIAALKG
As to the kind of experiment: two-hybrid library CCmax. The conditions noted are these: mean of both orientations.

The target in another assay is T44, 4H3121-AA.
T44 chain: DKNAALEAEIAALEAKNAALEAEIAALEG
As to the kind of experiment: two-hybrid library CCmax. The conditions noted are these: mean of both orientations.

The next assay has as its target T45, 4H675-AA.
T45 chain: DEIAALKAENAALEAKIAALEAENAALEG
The assay can be described thus: two-hybrid library CCmax. The conditions noted are these: mean of both orientations.

In another assay the target is T46, 4H2948-AA.
T46 chain: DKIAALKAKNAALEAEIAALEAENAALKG
The assay can be described thus: two-hybrid library CCmax. The conditions noted are these: mean of both orientations.

As to DKNSELKEEIQQLEEENQQLEEKISELKY [P6mSN], the interaction score with P9mSN is -0.248; in the assay with P6mSN, 0.276; with P7mSN it was -0.951; in the assay with P8mSN, -1.19.
As to DKIQELEKKNEELKREIWELEKKNQELER [4H2503-bH], the interaction score in the assay with 4H3057-bH was 0.435; with 4H3277-bH, -0.644; with 4H492-bH it was -0.241; with 4H2585-bH it was -1.1; in the assay with 4H40-bH, -2.05; in the assay with 4H348-bH, -0.941. In addition, the interaction score was -0.993 in the assay with 4H477-bH; -0.106 with 4H2717-bH; 0.0935 with 4H2915-bH; -0.903 with 4H319-bH; 0.303 with 4H741-bH; 0.527 in the assay with 4H2839-bH. For the same molecule, the interaction score in the assay with 4H2692-bH is 0.839; in the assay with 4H2588-bH, -0.858.
As for DENAALKAKIAALEAENAALEAEIAALEG [4H1809-AA], the interaction score is -0.294 with 4H2248-AA; -1.29 with 4H2742-AA; -1.47 in the assay with 4H391-AA; -1.51 in the assay with 4H497-AA; 1.16 with 4H2283-AA; -1.2 in the assay with 4H3666-AA. Moreover, the interaction score in the assay with 4H3591-AA was -1.94; with 4H3417-AA, -0.579; with 4H3066-AA, 0.194; in the assay with 4H3628-AA, -1.29; with 4H656-AA, -1.1; in the assay with 4H2713-AA, -1.63. The interaction score is -0.837 in the assay with 4H428-AA; -0.349 with 4H1809-AA; -0.86 with 4H3920-AA; -0.354 with 4H189-AA; 0.898 in the assay with 4H478-AA; -0.235 with 4H2991-AA. The interaction score was 2.27 in the assay with 4H3102-AA; 0.362 in the assay with 4H971-AA; -1.45 with 4H3939-AA; 2.32 with 4H1854-AA; -2.28 with 4H3029-AA; 1.51 in the assay with 4H3709-AA. The interaction score with 4H3446-AA is 1.42; in the assay with 4H3121-AA, -1.18; with 4H675-AA, -1.74; in the assay with 4H2948-AA, -1.16.

Source of the values: paper PMC10397247.
